# Experimental data from publication PMC6899460, “The Pseudomonas aeruginosa T6SS Delivers a Periplasmic Toxin that Disrupts Bacterial Cell Morphology” (Cell Reports, 2019).
# Target: the molecule itself
# Assay: SEC-MALS; SEC-MALLS and refractometry; Superdex 75 10/30 column, 20°C, 0.5 ml/min; fractions pooled from two peaks obtained after preparatory size-exclusion chromatography; dimer and monomer
protein,measurement,value
"VgrG2b C-terminal domain (VgrG2bC-ter) (domain or fragment, VgrG2b of Pseudomonas aeruginosa PAO1, C-terminal domain, residues 770-1,019; Monomeric and dimeric species were both found in solution; also called VgrG2b metallopeptidase domain; source: E. coli BL21 (λDE3) pET28a-vgrG2bC-ter, purified (Ni2+-NTA, SEC); not shown: His6, C-terminal, cleaved) VGETQRRFVLKQLDGQTAMPNVPYTITMANGEVIEGVTDAEGATQLLQKDAMNIAKVDMKHTKSPASAVAGIAAAVGAAVAVGKLLGGPDAEAGRALSEGEISLAKGVFGDSIDYSTVRLRDEDYVPWQGKDYVMAPNGHIYFGEELRGVADWSLESLQRQGLFIHEMTHVWQHQHGVNVLLVGAYQQARQFLLGDQYAYRLEPGKTLKDYNIEQQGDIVRDYFLEKNEFGEASANSRFAGVLKNFPTGY",stoichiometry N,2
